From patent US7727950B2, “Methods and reagents for assaying protein kinase activity” (The University of Dundee, priority 2002, dated 2010)

Substrate: CC(C)C[C@H](NC(=O)[C@@H](NC(=O)[C@H](CCCNC(=N)N)NC(=O)[C@H](C)NC(=O)[C@@H](N)CCCNC(=N)N)[C@@H](C)O)C(=O)N[C@@H](CO)C(=O)N[C@@H](Cc1ccccc1)C(=O)N[C@@H](C)C(=O)N[C@@H](CCC(=O)O)C(=O)N1CCC[C@H]1C(=O)NCC(=O)O
Assay: Kinetic parameters for peptide phosphorylation, radioactive filter-binding assay
Format: biochemical, human
Conditions: other: MAPKAP-K3; Standard Substrate = …; 30.0 °C
Excerpt: Apart from the AMP-activated protein kinase (AMPK, a gift from Drs S. Hawley and D. G. Hardie), cGMP-dependent protein kinase (PKG, a generous gift from Drs Susan Lohmann and Ulrich Walter, University of Wurzburg, Germany) and the catalytic subunit of cyclic AMP-dependent protein kinase (PKA, a gift from Dr C. Smythe), which were isolated from rat liver, bovine lung and bovine heart, respectively, all other protein kinases were expressed as either GST-fusion or His-tagged proteins (by a person, a person, Dr A. Paterson or a person, in this Division). The expressed proteins all corresponded to the human sequences apart from the rat Rho-dependent protein kinase (ROCK-II) and rat mitogen-activated protein kinase (MAPK) activated kinase-1a (MAPKAP-K1a, also called RSK). […]
All protein kinase assays were linear with respect to time. […] All papers were subsequently washed a further three times in phosphoric acid, once in acetone, then dried and counted for radioactivity. […] The plates were then washed six times (five min per wash) in PBS, 0.1% Tween 20 and binding of the phospho-specific antibody detected by incubating the plates with peroxidase-conjugated anti-sheep antibodies (Pierce). […] Signals were quantitated on LAS-1000IR software (FujiFilm). […]

B1: MAPKAP-K3 (Homo sapiens) (protein)
chain: MDGETAEEQGGPVPPPVAPGGPGLGGAPGGRREPKKYAVTDDYQLSKQVLGLGVNGKVLECFHRRTGQKCALKLLYDSPKARQEVDHHWQASGGPHIVCILDVYENMHHGKRCLLIIMECMEGGELFSRIQERGDQAFTEREAAEIMRDIGTAIQFLHSHNIAHRDVKPENLLYTSKEKDAVLKLTDFGFAKETTQNALQTPCYTPYYVAPEVLGPEKYDKSCDMWSLGVIMYILLCGFPPFYSNTGQAISPGMKRRIRLGQYGFPNPEWSEVSEDAKQLIRLLLKTDPTERLTITQFMNHPWINQSMVVPQTPLHTARVLQEDKDHWDEVKEEMTSALATMRVDYDQVKIKDLKTSNNRLLNKRRKKQAGSSSASQGCNNQ
notes: GST; made in house; host or cells: E. coli
Km: 30 µM
